Experiment [1] addresses HA-tagged spinophilin (human) (UniProt Q96SB3). Description: co-IP; HEK293 cells co-transfected with HA-spinophilin, V5-NF-M and kinase dead K72H myc-PKAc; low-ionic Tris buffer with 1% Triton X-100; HA or V5 immunoprecipitation, immunoblot. (A western blot detects proteins with antibodies after separation by electrophoresis.)
The target of experiment [2] is PP1. As to the kind of experiment: spinophilin IP, spectral counting by MS. Conditions: reference: intact (contralateral) striatum; sites S17,S100.

UniProt Q96SB3, sequence (Q96SB3 whole entry): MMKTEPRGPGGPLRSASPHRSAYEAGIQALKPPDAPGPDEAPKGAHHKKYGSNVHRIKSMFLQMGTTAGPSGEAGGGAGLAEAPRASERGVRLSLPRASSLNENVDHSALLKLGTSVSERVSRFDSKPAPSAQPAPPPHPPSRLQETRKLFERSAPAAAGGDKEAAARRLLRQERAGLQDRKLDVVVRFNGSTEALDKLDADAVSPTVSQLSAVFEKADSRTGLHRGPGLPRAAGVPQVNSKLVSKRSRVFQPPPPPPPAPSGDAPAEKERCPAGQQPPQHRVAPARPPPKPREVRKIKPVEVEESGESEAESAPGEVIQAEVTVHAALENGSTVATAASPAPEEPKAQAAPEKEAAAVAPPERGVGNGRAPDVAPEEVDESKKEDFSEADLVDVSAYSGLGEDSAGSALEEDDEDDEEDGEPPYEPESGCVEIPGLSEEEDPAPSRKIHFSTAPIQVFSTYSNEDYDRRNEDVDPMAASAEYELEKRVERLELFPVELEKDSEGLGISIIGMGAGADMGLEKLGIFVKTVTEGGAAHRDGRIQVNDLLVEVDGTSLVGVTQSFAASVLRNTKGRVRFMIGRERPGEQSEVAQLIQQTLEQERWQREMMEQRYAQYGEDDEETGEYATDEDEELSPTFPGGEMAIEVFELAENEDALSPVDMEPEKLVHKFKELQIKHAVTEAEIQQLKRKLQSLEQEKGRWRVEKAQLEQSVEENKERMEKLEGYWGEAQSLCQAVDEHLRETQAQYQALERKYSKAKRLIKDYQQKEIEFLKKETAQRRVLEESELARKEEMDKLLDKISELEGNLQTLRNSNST
spinophilin, sequence (Q6R891 whole entry, looked up, change not shown): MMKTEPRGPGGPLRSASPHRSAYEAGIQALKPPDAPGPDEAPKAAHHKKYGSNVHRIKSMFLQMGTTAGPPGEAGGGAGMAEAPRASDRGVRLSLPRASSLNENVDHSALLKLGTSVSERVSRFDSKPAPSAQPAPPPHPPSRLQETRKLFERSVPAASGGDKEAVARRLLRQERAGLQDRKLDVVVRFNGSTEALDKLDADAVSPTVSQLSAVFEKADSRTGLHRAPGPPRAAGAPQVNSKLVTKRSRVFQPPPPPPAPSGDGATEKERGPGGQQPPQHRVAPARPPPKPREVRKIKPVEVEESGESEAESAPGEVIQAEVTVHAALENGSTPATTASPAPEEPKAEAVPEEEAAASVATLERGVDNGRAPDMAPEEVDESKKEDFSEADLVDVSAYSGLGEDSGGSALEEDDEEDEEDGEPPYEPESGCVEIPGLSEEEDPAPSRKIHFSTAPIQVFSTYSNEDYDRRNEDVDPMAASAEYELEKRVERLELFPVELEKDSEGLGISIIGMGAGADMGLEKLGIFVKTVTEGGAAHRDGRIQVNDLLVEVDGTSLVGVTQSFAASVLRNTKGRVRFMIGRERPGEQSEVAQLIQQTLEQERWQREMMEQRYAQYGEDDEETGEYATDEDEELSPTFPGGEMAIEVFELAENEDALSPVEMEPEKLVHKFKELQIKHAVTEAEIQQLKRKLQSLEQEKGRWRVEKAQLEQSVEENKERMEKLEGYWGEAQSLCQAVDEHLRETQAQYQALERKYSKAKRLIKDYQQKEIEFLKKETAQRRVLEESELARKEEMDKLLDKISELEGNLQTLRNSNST

Substance “kinase dead (K72H mutant) myc-tagged PKAc (enzyme)” came in with a percent reduction of the association against wild type PKAc in experiment [1] of 63%.

On to “spinophilin (from UniProt Q6R891) 6-OHDA-lesioned (ipsilateral) striatum”, for which, in experiment [2], the other: percent increase over reference is 28%.

The values above are taken from paper PMC5467389.
